Reference: patent US12582683B2, “Prostate neoantigens and their uses” (Jansen Biotech, Inc., priority 2019, dated 2026)

Assays:
CD8+ and CD4+ T cells = assay: Endogenous autologous normal donor restimulation assay (Ad5-transduced dendritic cells plus autologous Pan-T cells); type: cell-based, human; details: Table 27, restimulation with overlapping 15-mer peptide pools, highest frequency across sixteen normal donors
Protocol: (5% CO2). The following day, DC cells were counted and plated in a 96 well round bottom microplate at a concentration of 30,000 viable cells per well. […] (5% CO2). […] Autologous CD3+ Pan-T cells isolated from human normal PBMCs were thawed using media.
Plates were incubated at 37° C. […] (5% CO2).
The cells were washed with PBS and stained with Live/Dead Fixable Aqua Dead Cell stain (Thermo-Fisher).

[1] = system: CD8+ T cells in PBMCs from patients with metastatic castrate-resistant prostate cancer; assay: Patient PBMC restimulation assay (in vitro immunogenicity of neoantigens); type: cell-based, human; set-up: Maximum frequency of TNFα+IFNγ+CD8+ T cells: unit not given here; details: for Maximum fold change over: fold change over negative control, highest across the PBMC donors evaluated, 9 mer peptide; for Maximum frequency of TNFα+IFNγ+CD8+ T cells: greatest frequency among all tested PBMC donors, negative control 0.011-0.8
Protocol: In Vitro Immunogenicity Assessment of Neoantigens (“Patient PBMC Restimulation Assay”)
PBMCs from human patients with metastatic castrate-resistant prostate cancer were thawed using media (RPMI 1640 supplemented with Glutamax, 10% HI FBS, and 1× Sodium Pyruvate). Cells were counted and plated in a 96 well round bottom microplate at a concentration of 250,000 viable cells per well. Lyophilized peptides were solubilized in 100% DMSO and diluted in media to 10 μg/mL. Neoantigen peptides were added in equal volume to PBMCs for a final concentration of 5 μg/mL. CEF Peptide Pool “Plus” (Cellular Technologies, Ltd.) was utilized as a positive control and DMSO at the same final concentration as the experimental peptides was utilized as a negative control. Human IL-15 (Peprotech) was added to all wells at final concentration of 10 ng/mL.
Plates were incubated at 37° C. (5% CO2) for a total of 13 days. Media was refreshed every 2 days with IL-15 (10 ng/mL final concentration) and IL-2 (R&D systems, 10 IU/mL final concentration). On day 12, PBMCs were re-stimulated with identical experimental peptides or controls, at same concentration as peptide stimulation on Day 1. After 1-hour incubation, protein Inhibitor Cocktail (eBioscience) was added to every well and plate was incubated overnight.
On day 13, cells were stained for intracellular flow cytometry analysis. The cells were washed with PBS and stained with Live/Dead Fixable Aqua Dead Cell stain (Thermo-Fisher). Following the live/dead stain, cells were blocked using Biotin-Free Fe Receptor Blocker (Accurate Chemical & Scientific Corp). Extracellular cellular flow panel (1 μL/antibody per well in 50 μL) consisted of CD3 PerCP-Cy5.5 (Biolegend), CD4 BV421 (Biolegend), and CD8 APC-Cy7 (Biolegend). After extracellular staining, cells were fixed using Foxp3/Transcription Factor Staining Buffer Set (eBioscience) and stained for intracellular proteins (1:50 dilution) using TNFα FITC (R&D Systems) and IFNγ BV785 (Biolegend). Cells were washed and resuspended in stain buffer and analyzed using a BD Celesta flow cytometer.
Flow cytometry cell staining analysis was completed using FlowJo v10. Cells were gated on live, singlet, CD3+ cells. The CD8+ T cells were analyzed for TNFα/IFNγ expression and the frequency of double positive TNFα/IFNγ CD8+ T cells was recorded. Responses were assessed to be positive when the frequency of double positive TNFα/IFNγ CD8+ T cells due to stimulation with an experimental peptide was increased greater than or equal to 2-fold over the DMSO only negative control for that patient. Peptides were analyzed in 1 to 7 patient samples.
The 9 mer fragments shown in Table 13 were assessed for their ability to activate T cells using the Patient PBMC restimulation assay described in Example 1 using TNFα and IFNγ production by CD8^+ T cells as a readout. Self-antigens shown in Table 15 were also used in the assays. […] PBMCs from ten patients were evaluated.

HLA-A*01:01 = HLA-A*01:01 (Homo sapiens, UniProt P04439, A114D/A174V/A182V/D101N/D185E/E176A/E190D/L180R/Q94H/R68K/S129P/T187R/V100A/V91M/W191G); assay: In vitro binding of neoantigens to class I MHC (UV peptide exchange, HLA class I ELISA); details: 100% = same binding affinity as positive control peptide
Protocol: (§1) In Vitro Binding of Neoantigens to Class I MHC
(§2) The 9 mer peptides identified by bioinformatics analysis were analyzed for their binding propensities to 6 common HLA class I alleles (HLA-A*01:01, A*02:01, A*03:01, A*24:02, B*07:02, B*08:01). The principle of the method is briefly described below and consists of two parts, one involving exchange of peptide with a positive control induced by Ultraviolet (UV) radiation, and the second is an enzyme immunoassay to detect stable HLA-peptide and empty HLA complexes.
(§3) HLA-bound peptides are critical for the stability of the HLA complex.
(§4) The exchange efficiency between the peptide of interest and Pos was analyzed using an HLA class I ELISA. The combined technologies allowed the identification of ligands for an HLA molecule of interest which are potentially immunogenic.
(§5) The UV control represented UV-irradiation of conditional HLA class I complex in the absence of a rescue peptide. […] To this end streptavidin was bound onto polystyrene microtiter wells. After washing and blocking, HLA complex present in exchange reaction mixtures or ELISA controls was captured by the streptavidin on the microtiter plate via its biotinylated heavy chain. Non-bound material was removed by washing. Subsequently, horseradish peroxidase (HRP)-conjugated antibody to human B2M was added. […] In the latter case B2M was removed during the washing step. After removal of non-bound HRP conjugate by washing, a substrate solution was added to the wells. A coloured product formed in proportion to the amount of intact HLA complex present in the samples. After the reaction was terminated by the addition of a stop solution, absorbance was measured in a microtiter plate reader. […] Suboptimal HLA binding of peptides with a moderate to low affinity for HLA class I molecules can also be detected by this ELISA technique (Rodenko, B et al. (2006) Nature Protocols 1: 1120-32).
(§6) Binding of select neoepitopes to HLA-A*01:01, HLA-A* 02:01, HLA-A* 03:01, HLA-A*24:02, HLA-1B*07:02 and HLA-1B*08:01 was evaluated using the assay described in Example 1. […] As a criterion for further evaluation, peptides with an exchange rate of at least 10% with the corresponding Pos peptide for at least one of the 6 HLA alleles that we considered for further evaluation. […] Higher percentages correspond to stronger binding to the HLA allele.

HLA-A*02:01 = HLA-A*02:01 (Homo sapiens, UniProt P04439, D140Y/D185E/D98H/E176V/E277Q/G131W/G231S/I119V/I121R/I166T/I218V/L300P/L318F/N151K/N90K/P208A/P217A/Q86G/Q94H/R138H/R169H/T345S); assay: as above; details: 100% = same binding affinity as positive control peptide
Protocol: as §1, §2, §3, §4, §5, §6

HLA-A*03:01 = HLA-A*03:01 (Homo sapiens, UniProt P04439); assay: as above; details: 100% = same binding affinity as positive control peptide
Protocol: as §1, §2, §3, §4, §5, §6

HLA-A*24:02 = HLA-A*24:02 (Homo sapiens, UniProt P04439, D101N/D140Y/D185E/E176V/E190D/F33S/G103R/G107R/I119L/I121M/I306V/K335N/L105A/L180Q/L300P/N151K/N90K/Q86E/Q94H/R106L/R138H/R89G/T104I/T345S/V100E/W191G/Y123F); assay: as above; details: 100% = same binding affinity as positive control peptide
Protocol: as §1, §2, §3, §4, §5, §6

HLA-B*07:02 = HLA-B*07:02 (Homo sapiens, UniProt P01889); assay: as above; details: 100% = same binding affinity as positive control peptide
Protocol: as §1, §2, §3, §4, §5, §6

## DGHSYTSKVNCLLLQDGFHGCVSITGAAGRRNLSIFLFLMLCKLEFHAC (listed as Homo sapiens) [AS55, splice variant SPOCK1]
CD8+ and CD4+ T cells
  Maximum Frequency of TNFα/IFNγ Double Positive CD4+30 T cells: 0.063

## SLYHREKQLIAMDSAI (listed as Homo sapiens) [Neoantigen P22, 5LC45A3-ELK4]
[1]
  Maximum fold change over: 5.00
  Maximum frequency of TNFα+IFNγ+CD8+ T cells: 0.120
HLA-A*01:01
  Exchange rate with Pos peptide, HLA-A*01:01: 4.4%
HLA-A*02:01
  Exchange rate with Pos peptide, HLA-A*02:01: 46.9%
HLA-A*03:01
  Exchange rate with Pos peptide, HLA-A*03:01: 4.8%
HLA-A*24:02
  Exchange rate with Pos peptide, HLA-A*24:02: 0%
HLA-B*07:02
  Exchange rate with Pos peptide, HLA-B*07:02: 8.3%

## VQPIARELYQFTFDLLI (listed as Homo sapiens) [Neoantigen P48, AR.p.H875Y]
[1]
  Maximum fold change over: 2.33
  Maximum frequency of TNFα+IFNγ+CD8+ T cells: 0.220
HLA-A*01:01
  Exchange rate with Pos peptide, HLA-A*01:01: 4.3%
HLA-A*02:01
  Exchange rate with Pos peptide, HLA-A*02:01: 99.3%
HLA-A*03:01
  Exchange rate with Pos peptide, HLA-A*03:01: 4.4%
HLA-A*24:02
  Exchange rate with Pos peptide, HLA-A*24:02: 0.1%
HLA-B*07:02
  Exchange rate with Pos peptide, HLA-B*07:02: 12.8%

## WKFEMSYTVGGPPPHVHARPRHWKTDR (listed as Homo sapiens) [AS18, splice variant NWD1]
CD8+ and CD4+ T cells
  Maximum Frequency of TNFα/IFNγ Double Positive CD4+30 T cells: 0.046

## YEAGMTLGEKFRVGNCKHLKMTRP (listed as Homo sapiens) [Neoantigen P82, AR-V7]
[1]
  Maximum fold change over: 3.46
  Maximum frequency of TNFα+IFNγ+CD8+ T cells: 0.970
HLA-A*01:01
  Exchange rate with Pos peptide, HLA-A*01:01: 1.5%
HLA-A*02:01
  Exchange rate with Pos peptide, HLA-A*02:01: 6.3%
HLA-A*03:01
  Exchange rate with Pos peptide, HLA-A*03:01: 58.1%
HLA-A*24:02
  Exchange rate with Pos peptide, HLA-A*24:02: −0.1%
HLA-B*07:02
  Exchange rate with Pos peptide, HLA-B*07:02: 12.9%

## YEAGMTLGGKILFFLFLLLPLSPFSLIF (listed as Homo sapiens) [Neoantigen P87, AR-Intron]
[1]
  Maximum fold change over: 3.24
  Maximum frequency of TNFα+IFNγ+CD8+ T cells: 0.120
CD8+ and CD4+ T cells
  Maximum Frequency of TNFα/IFNγ Double Positive CD4+30 T cells: 0.079
HLA-A*01:01
  Exchange rate with Pos peptide, HLA-A*01:01: 1.1%
HLA-A*02:01
  Exchange rate with Pos peptide, HLA-A*02:01: 64%
HLA-A*03:01
  Exchange rate with Pos peptide, HLA-A*03:01: 2.4%
HLA-A*24:02
  Exchange rate with Pos peptide, HLA-A*24:02: 0.2%
HLA-B*07:02
  Exchange rate with Pos peptide, HLA-B*07:02: 5%

B1: VFFKRAAEGFFRMNKLKESSDTNPKPYCMAAPMGLTENNRNRKKSYRETNLKAVSWPLNHT [P76] (peptide, listed as Homo sapiens)
chain: VFFKRAAEGFFRMNKLKESSDTNPKPYCMAAPMGLTENNRNRKKSYRETNLKAVSWPLNHT
notes: AR-V3
[1]
  Maximum fold change over: 2.30
  Maximum frequency of TNFα+IFNγ+CD8+ T cells: 0.170
[1]; patient PBMC restimulation, CD8+ T cells
  Immunogenic: Yes
HLA-A*01:01
  Exchange rate with Pos peptide, HLA-A*01:01: 0.1%
HLA-A*02:01
  Exchange rate with Pos peptide, HLA-A*02:01: 85.9%
HLA-A*03:01
  Exchange rate with Pos peptide, HLA-A*03:01: 6%
HLA-A*24:02
  Exchange rate with Pos peptide, HLA-A*24:02: −0.5%
HLA-B*07:02
  Exchange rate with Pos peptide, HLA-B*07:02: 91.5%

B2: WTPIPVLTRWPLPHPPPWRRATSCRMARSSPSATSGSSVRRRCSSLPSWVWNLAASTRPRSTPS (peptide, listed as Homo sapiens)
chain: WTPIPVLTRWPLPHPPPWRRATSCRMARSSPSATSGSSVRRRCSSLPSWVWNLAASTRPRSTPS
notes: TMEM222-LOC644961
[1]
  Maximum fold change over: 5.00
  Maximum frequency of TNFα+IFNγ+CD8+ T cells: 0.480
HLA-A*01:01
  Exchange rate with Pos peptide, HLA-A*01:01: 5.2%
HLA-A*02:01
  Exchange rate with Pos peptide, HLA-A*02:01: 8.2%
HLA-A*03:01
  Exchange rate with Pos peptide, HLA-A*03:01: 4.1%
HLA-A*24:02
  Exchange rate with Pos peptide, HLA-A*24:02: 0.1%
HLA-B*07:02
  Exchange rate with Pos peptide, HLA-B*07:02: 91.3%
